Assay results published in article PMC10465592, “Reduced ADP off-rate by the yeast CCT2 double mutation T394P/R510H which causes Leber congenital amaurosis in humans” (Communications Biology, 2023).

Experiments:
Test in all cases: steady-state ATPase, coumarin-labelled phosphate-binding protein fluorescence, fit to two allosteric transitions
Assay type in all cases: biochemical, Saccharomyces cerevisiae
Conditions in all cases: 25 °C, pH 7.5 Tris-HCl, 10 mM MgCl2, 50 mM KCl, 20% glycerol, 1 mM DTT, first ring (stronger site), cooperative
[1] = tested on: T1, Nc1ncnc2c1ncn2[C@@H]1O[C@H](COP(=O)(O)OP(=O)(O)OP(=O)(O)O)[C@@H](O)[C@H]1O
T1 construct: native complex from yeast cells, two back-to-back rings each of eight distinct subunits CCT1-CCT8; CCT2 mutations introduced in the chromosomal gene
Text: steady-state ATPase, coumarin-labelled phosphate-binding protein fluorescence, fit to two allosteric transitions on CCT/TRiC (Saccharomyces cerevisiae) | In the case of the wild-type, the values of the apparent ATP binding constants

[2] = tested on: T1, Nc1ncnc2c1ncn2[C@@H]1O[C@H](COP(=O)(O)OP(=O)(O)OP(=O)(O)O)[C@@H](O)[C@H]1O; remark: listed apart in the source
Text: steady-state ATPase, coumarin-labelled phosphate-binding protein fluorescence, fit to two allosteric transitions on CCT/TRiC (Saccharomyces cerevisiae) | In the case of the R510H single mutant, the values of the apparent ATP binding

[3] = tested on: T1, Nc1ncnc2c1ncn2[C@@H]1O[C@H](COP(=O)(O)OP(=O)(O)OP(=O)(O)O)[C@@H](O)[C@H]1O; remark: listed apart in the source
Text: steady-state ATPase, coumarin-labelled phosphate-binding protein fluorescence, fit to two allosteric transitions on CCT/TRiC (Saccharomyces cerevisiae) | In the case of the T394P single mutant, the values of the apparent ATP binding

CCT/TRiC (Saccharomyces cerevisiae) (Saccharomyces cerevisiae S288C)
K0.5 [1]: 8.3 (±1.6) μM
kcat [1]: 0.043 (±0.005) s^-1

CCT/TRiC (Saccharomyces cerevisiae) (Saccharomyces cerevisiae S288C; P39076:R510H)
K0.5 [2]: 7.1 (±2.4) μM
kcat [2]: 0.10 (±0.03) s^-1

CCT/TRiC (Saccharomyces cerevisiae) (Saccharomyces cerevisiae S288C; P39076:T394P)
K0.5 [3]: 8.9 (±3.4) μM
kcat [3]: 0.11 (±0.03) s^-1
